Laboratory results from IntAct's records for PubMed 21896273.

B1: Signal peptide peptidase-like 2A (Mus musculus), Q9JJF9 (parent)
chain: MGLLHSLHAPAAALLWSCLLGLAAAQEAILHASTNGVSSLSKDYCMYYNNNWTRLPSSLENATSLSLMNLTGTALCHLSDIPPDGIRNKAVVVHWGPCHFLEKARIAQEGGAAALLIANNSVLIPSSRNKSTFQNVTVLIAVITQKDFKDMKETLGDDITVKMYSPSWPNFDYTLVVIFVIAVFTVALGGYWSGLIELENMKSVEDAEDRETRKKKDDYLTFSPLTVVVFVVICCIMIVLLYFFYRWLVYVMIAIFCIASSMSLYNCLSALIHRMPCGQCTILCCGKNIKVSLIFLSGLCISVAVVWAVFRNEDRWAWILQDILGIAFCLNLIKTMKLPNFMSCVILLGLLLIYDVFFVFITPFITKNGESIMVELAAGPFENAEKLPVVIRVPKLMGYSVMSVCSVPVSVLGFGDIIVPGLLIAYCRRFDVQTGSSIYYISSTIAYAVGMIITFVVLMVMKTGQPALLYLVPCTLITVSVVAWSRKEMKKFWKGSSYQVMDHLDYSTNEENPVTTDEQIVQQ

Variants of: B1
Conditions: with lamp2_human LAMP2, P13473
Sequence of lamp2_human LAMP2, P13473 (P13473 whole entry): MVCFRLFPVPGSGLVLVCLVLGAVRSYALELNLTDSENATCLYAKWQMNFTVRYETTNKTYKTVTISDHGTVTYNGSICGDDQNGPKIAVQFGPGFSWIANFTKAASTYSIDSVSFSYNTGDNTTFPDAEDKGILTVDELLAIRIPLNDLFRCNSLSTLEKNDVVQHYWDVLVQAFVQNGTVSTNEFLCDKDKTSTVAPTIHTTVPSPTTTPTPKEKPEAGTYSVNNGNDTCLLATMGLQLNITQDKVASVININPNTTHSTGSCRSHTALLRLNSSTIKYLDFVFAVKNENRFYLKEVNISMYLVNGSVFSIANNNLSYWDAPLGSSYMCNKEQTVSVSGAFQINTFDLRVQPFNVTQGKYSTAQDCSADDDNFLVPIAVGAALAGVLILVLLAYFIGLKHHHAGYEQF

Variant | effect of a mutation on the interaction
Y498A | disrupting interaction

Variants of: B1
Conditions: with lamp2_human LAMP2, P13473
Remark: another data set of the same source

Variant | effect of a mutation on the interaction
Y506A | disrupting interaction
